Reference: article PMC9482650, “Quantitative fragmentomics allow affinity mapping of interactomes” (Nature Communications, 2022)

Columns and labels:
Test in all cases: holdup assay
Design in all cases: key: below the threshold = too weak to quantify, mostly under pKd 3.1 to 4
GRIP1_7, Q9Y3R0 = biological target: T1, GRIP1_7, Q9Y3R0
T1 sequence (Q9Y3R0 999-1096, limits assumed, looked up): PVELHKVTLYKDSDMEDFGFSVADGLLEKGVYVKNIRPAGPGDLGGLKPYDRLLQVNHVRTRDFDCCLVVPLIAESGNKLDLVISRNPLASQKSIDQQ

DLG3_3, Q92796 = biological target: T2, DLG3_3, Q92796
T2 sequence (Q92796 374-475, limits assumed, looked up): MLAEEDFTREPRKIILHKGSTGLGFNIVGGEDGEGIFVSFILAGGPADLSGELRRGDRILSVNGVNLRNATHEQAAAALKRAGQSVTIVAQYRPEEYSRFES

DLG1_1, Q12959 = biological target: DLG1_1, Q12959
MAGI2_3, Q86UL8 = biological target: MAGI2_3, Q86UL8
DLG1_2, Q12959 = biological target: DLG1_2, Q12959
PCLO, Q9Y6V0 = biological target: T3, PCLO, Q9Y6V0
T3 sequence (Q9Y6V0 4491-4600, limits assumed, looked up): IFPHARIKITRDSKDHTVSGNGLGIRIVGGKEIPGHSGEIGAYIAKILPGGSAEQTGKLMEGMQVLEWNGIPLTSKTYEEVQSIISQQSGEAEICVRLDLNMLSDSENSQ

DFNB31_1, Q9P202 = biological target: T4, DFNB31_1, Q9P202
T4 sequence (Q9P202 135-233, limits assumed, looked up): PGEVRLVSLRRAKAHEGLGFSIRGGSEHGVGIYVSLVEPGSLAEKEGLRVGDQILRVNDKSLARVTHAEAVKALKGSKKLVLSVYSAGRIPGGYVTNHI

MAGI2_5, Q86UL8 = biological target: MAGI2_5, Q86UL8
TJP2_1, Q9UDY2 = biological target: TJP2_1, Q9UDY2
FRMPD3, Q5JV73 = biological target: FRMPD3, Q5JV73
MAGI1_2, Q96QZ7 = biological target: MAGI1_2, Q96QZ7
DLG4_3, P78352 = biological target: DLG4_3, P78352
DVL3, Q92997 = biological target: T5, DVL3, Q92997
T5 sequence (Q92997 244-331, limits assumed, looked up): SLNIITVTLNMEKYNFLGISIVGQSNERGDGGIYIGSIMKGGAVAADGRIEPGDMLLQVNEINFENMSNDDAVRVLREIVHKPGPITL

SCRIB_3, Q14160 = biological target: SCRIB_3, Q14160
PTPN3, P26045 = biological target: PTPN3, P26045
Inadl_6, Q8NI35 = biological target: Inadl_6, Q8NI35
NHERF2_2, Q15599 = biological target: NHERF2_2, Q15599
TIAM2, Q8IVF5 = biological target: T6, TIAM2, Q8IVF5
T6 sequence (Q8IVF5 885-986, limits assumed, looked up): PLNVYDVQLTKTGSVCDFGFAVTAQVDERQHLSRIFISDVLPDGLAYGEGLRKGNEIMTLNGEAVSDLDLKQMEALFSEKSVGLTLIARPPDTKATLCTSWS

MAST1, Q9Y2H9 = biological target: MAST1, Q9Y2H9
Inadl_10, Q8NI35 = biological target: Inadl_10, Q8NI35
GRIP1_3, Q9Y3R0 = biological target: T7, GRIP1_3, Q9Y3R0
T7 sequence (Q9Y3R0 247-346, limits assumed, looked up): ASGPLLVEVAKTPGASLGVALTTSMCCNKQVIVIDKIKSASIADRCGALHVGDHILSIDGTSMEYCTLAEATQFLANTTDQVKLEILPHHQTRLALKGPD

DFNB31_3, Q9P202 = biological target: T8, DFNB31_3, Q9P202
T8 sequence (Q9P202 811-907, limits assumed, looked up): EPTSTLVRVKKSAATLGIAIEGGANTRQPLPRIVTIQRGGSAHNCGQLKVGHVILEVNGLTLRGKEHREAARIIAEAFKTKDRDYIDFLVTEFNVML

CARD11, Q9BXL7 = biological target: T9, CARD11, Q9BXL7
T9 sequence (Q9BXL7 662-765, limits assumed, looked up): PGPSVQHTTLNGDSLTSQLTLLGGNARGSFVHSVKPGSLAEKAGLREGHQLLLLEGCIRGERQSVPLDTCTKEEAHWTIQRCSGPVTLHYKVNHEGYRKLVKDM

RHPN1, Q8TCX5 = biological target: T10, RHPN1, Q8TCX5
T10 sequence (Q8TCX5 508-602, limits assumed, looked up): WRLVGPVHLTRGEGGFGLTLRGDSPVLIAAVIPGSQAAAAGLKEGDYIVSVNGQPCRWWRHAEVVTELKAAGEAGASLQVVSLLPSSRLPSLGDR

GRID2IP_2, A4D2P6 = biological target: GRID2IP_2, A4D2P6
CASK, O14936 = biological target: CASK, O14936
LNX2_3, Q8N448 = biological target: T11, LNX2_3, Q8N448
T11 sequence (Q8N448 463-564, limits assumed, looked up): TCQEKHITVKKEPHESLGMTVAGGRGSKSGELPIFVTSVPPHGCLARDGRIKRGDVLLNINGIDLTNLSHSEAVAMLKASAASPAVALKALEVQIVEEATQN

[1] = plain residues with an end cap or a label only (N-terminal biotin on a linker: ttds)
[2] = plain residues with an end cap or a label only (N-terminal biotin on a linker: ahx)

Chain of PTPN3, P26045 (P26045 505-587): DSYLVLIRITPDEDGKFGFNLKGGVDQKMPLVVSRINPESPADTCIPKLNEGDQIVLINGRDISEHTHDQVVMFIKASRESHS
Chain of CASK, O14936 (O14936 487-570): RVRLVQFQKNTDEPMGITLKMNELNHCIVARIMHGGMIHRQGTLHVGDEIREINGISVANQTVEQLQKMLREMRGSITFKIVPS
Chain of MAGI1_2, Q96QZ7 (Q96QZ7 456-580): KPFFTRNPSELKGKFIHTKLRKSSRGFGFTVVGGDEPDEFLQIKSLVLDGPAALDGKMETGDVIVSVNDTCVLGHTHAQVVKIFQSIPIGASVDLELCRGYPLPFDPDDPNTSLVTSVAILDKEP
Chain of Inadl_10, Q8NI35 (Q8NI35 1673-1763): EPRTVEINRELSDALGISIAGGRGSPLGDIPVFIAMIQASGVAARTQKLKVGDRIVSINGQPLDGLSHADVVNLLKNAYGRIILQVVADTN
Chain of MAGI2_5, Q86UL8 (Q86UL8 915-1017): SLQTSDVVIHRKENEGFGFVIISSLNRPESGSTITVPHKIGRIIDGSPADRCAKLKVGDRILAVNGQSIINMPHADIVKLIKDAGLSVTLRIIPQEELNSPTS
Chain of MAST1, Q9Y2H9 (Q9Y2H9 962-1065): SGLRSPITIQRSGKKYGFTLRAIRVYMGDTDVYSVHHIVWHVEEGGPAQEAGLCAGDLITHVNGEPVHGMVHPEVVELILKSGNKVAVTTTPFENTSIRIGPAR
Chain of SCRIB_3, Q14160 (Q14160 999-1103): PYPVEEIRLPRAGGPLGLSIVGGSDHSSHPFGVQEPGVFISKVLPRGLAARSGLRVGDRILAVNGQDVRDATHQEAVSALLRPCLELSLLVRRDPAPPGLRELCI
Chain of MAGI2_3, Q86UL8 (Q86UL8 600-682): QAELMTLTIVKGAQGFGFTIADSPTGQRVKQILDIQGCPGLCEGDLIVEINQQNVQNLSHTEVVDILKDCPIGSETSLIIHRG
Chain of Inadl_6, Q8NI35 (Q8NI35 1058-1167): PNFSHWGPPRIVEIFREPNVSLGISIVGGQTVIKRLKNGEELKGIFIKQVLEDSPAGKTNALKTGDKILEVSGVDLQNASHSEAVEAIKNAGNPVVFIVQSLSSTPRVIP
Chain of DLG4_3, P78352 (P78352 306-403): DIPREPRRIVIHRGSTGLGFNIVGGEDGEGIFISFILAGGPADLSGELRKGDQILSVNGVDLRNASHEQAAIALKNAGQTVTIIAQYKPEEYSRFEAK
Chain of FRMPD3, Q5JV73 (Q5JV73 12-100): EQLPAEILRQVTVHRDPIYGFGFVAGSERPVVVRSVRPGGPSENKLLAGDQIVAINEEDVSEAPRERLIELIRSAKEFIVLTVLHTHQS
Chain of GRID2IP_2, A4D2P6 (A4D2P6 272-370): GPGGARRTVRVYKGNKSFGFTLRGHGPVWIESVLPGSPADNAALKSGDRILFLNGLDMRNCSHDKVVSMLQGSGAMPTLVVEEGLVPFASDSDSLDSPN
Chain of NHERF2_2, Q15599 (Q15599 142-238): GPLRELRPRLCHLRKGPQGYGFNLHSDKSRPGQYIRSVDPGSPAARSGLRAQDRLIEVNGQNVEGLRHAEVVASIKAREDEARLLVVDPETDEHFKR
Chain of TJP2_1, Q9UDY2 (Q9UDY2 24-128): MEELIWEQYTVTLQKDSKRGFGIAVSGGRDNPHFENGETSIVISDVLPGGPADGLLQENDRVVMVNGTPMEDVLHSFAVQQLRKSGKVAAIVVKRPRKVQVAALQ

B1: HPV59-E6, Q81964 (peptide)
chain: QRQARSETLV
GRIP1_7, Q9Y3R0; [1]
  pKd: below the threshold
DLG3_3, Q92796; [1]
  pKd: 4.51
DLG1_1, Q12959; [1]
  pKd: 5.05
MAGI2_3, Q86UL8; [1]
  pKd: 4.73
DLG1_2, Q12959; [1]
  pKd: 5.56
PCLO, Q9Y6V0; [1]
  pKd: below the threshold
DFNB31_1, Q9P202; [1]
  pKd: below the threshold
MAGI2_5, Q86UL8; [1]
  pKd: 5.02
TJP2_1, Q9UDY2; [1]
  pKd: 3.81
FRMPD3, Q5JV73; [1]
  pKd: below the threshold
MAGI1_2, Q96QZ7; [1]
  pKd: 6.04
DLG4_3, P78352; [1]
  pKd: 4.21
DVL3, Q92997; [1]
  pKd: below the threshold
SCRIB_3, Q14160; [1]
  pKd: 3.86
PTPN3, P26045; [1]
  pKd: 4.4
Inadl_6, Q8NI35; [1]
  pKd: below the threshold
NHERF2_2, Q15599; [1]
  pKd: below the threshold
TIAM2, Q8IVF5; [1]
  pKd: below the threshold
MAST1, Q9Y2H9; [1]
  pKd: 4.62
Inadl_10, Q8NI35; [1]
  pKd: below the threshold
GRIP1_3, Q9Y3R0; [1]
  pKd: below the threshold
DFNB31_3, Q9P202; [1]
  pKd: below the threshold
CARD11, Q9BXL7; [1]
  pKd: below the threshold
RHPN1, Q8TCX5; [1]
  pKd: 3.94
GRID2IP_2, A4D2P6; [1]
  pKd: 3.64
CASK, O14936; [1]
  pKd: below the threshold
LNX2_3, Q8N448; [1]
  pKd: below the threshold

B2: SLC4A7, Q9Y6M7 (peptide)
chain: KKYVDAETSL
GRIP1_7, Q9Y3R0; [1]
  pKd: below the threshold
DLG3_3, Q92796; [1]
  pKd: 3.79
DLG1_1, Q12959; [1]
  pKd: below the threshold
MAGI2_3, Q86UL8; [1]
  pKd: below the threshold
DLG1_2, Q12959; [1]
  pKd: 3.56
PCLO, Q9Y6V0; [1]
  pKd: below the threshold
DFNB31_1, Q9P202; [1]
  pKd: 3.98
MAGI2_5, Q86UL8; [1]
  pKd: 3.52
TJP2_1, Q9UDY2; [1]
  pKd: below the threshold
FRMPD3, Q5JV73; [1]
  pKd: 3.58
MAGI1_2, Q96QZ7; [1]
  pKd: 3.69
DLG4_3, P78352; [1]
  pKd: 3.59
DVL3, Q92997; [1]
  pKd: below the threshold
SCRIB_3, Q14160; [1]
  pKd: 5.09
PTPN3, P26045; [1]
  pKd: 5.04
Inadl_6, Q8NI35; [1]
  pKd: 3.71
NHERF2_2, Q15599; [1]
  pKd: 4.62
TIAM2, Q8IVF5; [1]
  pKd: below the threshold
MAST1, Q9Y2H9; [1]
  pKd: 5.32
Inadl_10, Q8NI35; [1]
  pKd: below the threshold
GRIP1_3, Q9Y3R0; [1]
  pKd: below the threshold
DFNB31_3, Q9P202; [1]
  pKd: below the threshold
CARD11, Q9BXL7; [1]
  pKd: below the threshold
RHPN1, Q8TCX5; [1]
  pKd: 4.28
GRID2IP_2, A4D2P6; [1]
  pKd: 4.02
CASK, O14936; [1]
  pKd: below the threshold
LNX2_3, Q8N448; [1]
  pKd: below the threshold

B3: TMIGD1, Q6UXZ0 (peptide)
chain: DKDPHSETAL
GRIP1_7, Q9Y3R0; [1]
  pKd: below the threshold
DLG3_3, Q92796; [1]
  pKd: below the threshold
DLG1_1, Q12959; [1]
  pKd: 3.77
MAGI2_3, Q86UL8; [1]
  pKd: 3.52
DLG1_2, Q12959; [1]
  pKd: below the threshold
PCLO, Q9Y6V0; [1]
  pKd: below the threshold
DFNB31_1, Q9P202; [1]
  pKd: 3.98
MAGI2_5, Q86UL8; [1]
  pKd: 3.67
TJP2_1, Q9UDY2; [1]
  pKd: below the threshold
FRMPD3, Q5JV73; [1]
  pKd: 3.53
MAGI1_2, Q96QZ7; [1]
  pKd: below the threshold
DLG4_3, P78352; [1]
  pKd: below the threshold
DVL3, Q92997; [1]
  pKd: below the threshold
SCRIB_3, Q14160; [1]
  pKd: 5.01
PTPN3, P26045; [1]
  pKd: 5.02
Inadl_6, Q8NI35; [1]
  pKd: 3.53
NHERF2_2, Q15599; [1]
  pKd: 4.66
TIAM2, Q8IVF5; [1]
  pKd: below the threshold
MAST1, Q9Y2H9; [1]
  pKd: 4.85
Inadl_10, Q8NI35; [1]
  pKd: below the threshold
GRIP1_3, Q9Y3R0; [1]
  pKd: below the threshold
DFNB31_3, Q9P202; [1]
  pKd: below the threshold
CARD11, Q9BXL7; [1]
  pKd: below the threshold
RHPN1, Q8TCX5; [1]
  pKd: 3.85
GRID2IP_2, A4D2P6; [1]
  pKd: below the threshold
CASK, O14936; [1]
  pKd: below the threshold
LNX2_3, Q8N448; [1]
  pKd: below the threshold

B4: SHROOM4, Q9ULL8 (peptide)
chain: ESLLLGPSNF
GRIP1_7, Q9Y3R0; [2]
  pKd: below the threshold
DLG3_3, Q92796; [2]
  pKd: below the threshold
DLG1_1, Q12959; [2]
  pKd: below the threshold
MAGI2_3, Q86UL8; [2]
  pKd: below the threshold
DLG1_2, Q12959; [2]
  pKd: below the threshold
PCLO, Q9Y6V0; [2]
  pKd: below the threshold
DFNB31_1, Q9P202; [2]
  pKd: below the threshold
MAGI2_5, Q86UL8; [2]
  pKd: below the threshold
TJP2_1, Q9UDY2; [2]
  pKd: below the threshold
FRMPD3, Q5JV73; [2]
  pKd: below the threshold
MAGI1_2, Q96QZ7; [2]
  pKd: below the threshold
DLG4_3, P78352; [2]
  pKd: below the threshold
DVL3, Q92997; [2]
  pKd: below the threshold
SCRIB_3, Q14160; [2]
  pKd: below the threshold
PTPN3, P26045; [2]
  pKd: below the threshold
Inadl_6, Q8NI35; [2]
  pKd: below the threshold
NHERF2_2, Q15599; [2]
  pKd: below the threshold
TIAM2, Q8IVF5; [2]
  pKd: 3.49
MAST1, Q9Y2H9; [2]
  pKd: below the threshold
Inadl_10, Q8NI35; [2]
  pKd: below the threshold
GRIP1_3, Q9Y3R0; [2]
  pKd: below the threshold
DFNB31_3, Q9P202; [2]
  pKd: below the threshold
CARD11, Q9BXL7; [2]
  pKd: below the threshold
RHPN1, Q8TCX5; [2]
  pKd: below the threshold
GRID2IP_2, A4D2P6; [2]
  pKd: below the threshold
CASK, O14936; [2]
  pKd: below the threshold
LNX2_3, Q8N448; [2]
  pKd: below the threshold

B5: KCTD3, Q9Y597 (peptide)
chain: SDSSGQEYSL
GRIP1_7, Q9Y3R0; [2]
  pKd: below the threshold
DLG3_3, Q92796; [2]
  pKd: below the threshold
DLG1_1, Q12959; [2]
  pKd: below the threshold
MAGI2_3, Q86UL8; [2]
  pKd: below the threshold
DLG1_2, Q12959; [2]
  pKd: below the threshold
PCLO, Q9Y6V0; [2]
  pKd: below the threshold
DFNB31_1, Q9P202; [2]
  pKd: below the threshold
MAGI2_5, Q86UL8; [2]
  pKd: below the threshold
TJP2_1, Q9UDY2; [2]
  pKd: below the threshold
FRMPD3, Q5JV73; [2]
  pKd: 3.7
MAGI1_2, Q96QZ7; [2]
  pKd: below the threshold
DLG4_3, P78352; [2]
  pKd: below the threshold
DVL3, Q92997; [2]
  pKd: below the threshold
SCRIB_3, Q14160; [2]
  pKd: below the threshold
PTPN3, P26045; [2]
  pKd: 4.14
Inadl_6, Q8NI35; [2]
  pKd: below the threshold
NHERF2_2, Q15599; [2]
  pKd: below the threshold
TIAM2, Q8IVF5; [2]
  pKd: below the threshold
MAST1, Q9Y2H9; [2]
  pKd: below the threshold
Inadl_10, Q8NI35; [2]
  pKd: below the threshold
GRIP1_3, Q9Y3R0; [2]
  pKd: below the threshold
DFNB31_3, Q9P202; [2]
  pKd: below the threshold
CARD11, Q9BXL7; [2]
  pKd: below the threshold
RHPN1, Q8TCX5; [2]
  pKd: below the threshold
GRID2IP_2, A4D2P6; [2]
  pKd: below the threshold
CASK, O14936; [2]
  pKd: below the threshold
LNX2_3, Q8N448; [2]
  pKd: below the threshold
